Source: patent US20090028788A1 (WASHINGTON UNIVERSITY IN ST LOUIS, published 2009)
Bridges are numbered along the chain shown (N, C = ends). Primed or numbered codes have the meaning given here. Where no end group is shown, it is not given here. [ ]: non-standard residue; d: D form. The star is where a group is joined. Cypate = CC1(C)C(/C=C/C=C/C=C/C=C2/N(CCC(=O)*)c3ccc4ccccc4c3C2(C)C)=[N+](CCC(=O)O)c2ccc3ccccc3c21; DOTA = O=C(O)CN1CCN(CC(=O)O)CCN(CC(=O)*)CCN(CC(=O)O)CC1; DTPA = O=C(O)CN(CCN(CC(=O)O)CC(=O)O)CCN(CC(=O)O)CC(=O)*; Cypate′ = NIR carbocyanine dye; βAla = NCCC(=O)O

B1: Cypate-Cyclo(Cys-Arg-Gly-Asp-Cys)-NH2 (peptide)
peptide: CRGDC
HELM: PEPTIDE1{[CC1(C)C(/C=C/C=C/C=C/C=C2/N(CCC(=O)[*:2])c3ccc4ccccc4c3C2(C)C)=[N+](CCC(=O)O)c2ccc3ccccc3c21].C.R.G.D.C.[am]}$PEPTIDE1,PEPTIDE1,2:R3-6:R3$$$V2.0
SMILES: CC1(C)C(/C=C/C=C/C=C/C=C2/N(CCC(=O)N[C@H]3CSSC[C@@H](C(N)=O)NC(=O)[C@H](CC(=O)O)NC(=O)CNC(=O)[C@H](CCCNC(=N)N)NC3=O)c3ccc4ccccc4c3C2(C)C)=[N+](CCC(=O)O)c2ccc3ccccc3c21
notes: also called Cypate-cyclo(CRGDC)-NH2
B2: Cypate-cyclo(CRGDSC)-NH2 (peptide)
peptide: CRGDSC
HELM: PEPTIDE1{[CC1(C)C(/C=C/C=C/C=C/C=C2/N(CCC(=O)[*:2])c3ccc4ccccc4c3C2(C)C)=[N+](CCC(=O)O)c2ccc3ccccc3c21].C.R.G.D.S.C.[am]}$PEPTIDE1,PEPTIDE1,2:R3-7:R3$$$V2.0
SMILES: CC1(C)C(/C=C/C=C/C=C/C=C2/N(CCC(=O)N[C@H]3CSSC[C@@H](C(N)=O)NC(=O)[C@H](CO)NC(=O)[C@H](CC(=O)O)NC(=O)CNC(=O)[C@H](CCCNC(=N)N)NC3=O)c3ccc4ccccc4c3C2(C)C)=[N+](CCC(=O)O)c2ccc3ccccc3c21
notes: also called Cypate-[Cyclo-(Cys-Arg-Gly-Asp-Ser-Cys)]1
B3: Cypate-cyclo(CRGDDC)-NH2 (peptide)
peptide: CRGDDC
HELM: PEPTIDE1{[CC1(C)C(/C=C/C=C/C=C/C=C2/N(CCC(=O)[*:2])c3ccc4ccccc4c3C2(C)C)=[N+](CCC(=O)O)c2ccc3ccccc3c21].C.R.G.D.D.C.[am]}$PEPTIDE1,PEPTIDE1,2:R3-7:R3$$$V2.0
SMILES: CC1(C)C(/C=C/C=C/C=C/C=C2/N(CCC(=O)N[C@H]3CSSC[C@@H](C(N)=O)NC(=O)[C@H](CC(=O)O)NC(=O)[C@H](CC(=O)O)NC(=O)CNC(=O)[C@H](CCCNC(=N)N)NC3=O)c3ccc4ccccc4c3C2(C)C)=[N+](CCC(=O)O)c2ccc3ccccc3c21
B4: Cypate(2)-Gly-Arg-Asp-Ser-Pro-Lys-OH (peptide)
peptide: {Cypate(2)}-GRDSPK-OH
B5: H-DPhe-Cyclo(Cys-Tyr-DTrp-Lys-Thr-Cys)-Thr-Val-Arg-Gly-Asp-NH2 (peptide)
peptide: XCYXKTCTVRGD
HELM: PEPTIDE1{[dF].C.Y.[dW].K.T.C.T.V.R.G.D.[am]}$PEPTIDE1,PEPTIDE1,2:R3-7:R3$$$V2.0
SMILES: CC(C)[C@H](NC(=O)[C@@H](NC(=O)[C@@H]1CSSC[C@H](NC(=O)[C@H](N)Cc2ccccc2)C(=O)N[C@@H](Cc2ccc(O)cc2)C(=O)N[C@H](Cc2c[nH]c3ccccc23)C(=O)N[C@@H](CCCCN)C(=O)N[C@@H]([C@@H](C)O)C(=O)N1)[C@@H](C)O)C(=O)N[C@@H](CCCNC(=N)N)C(=O)NCC(=O)N[C@@H](CC(=O)O)C(N)=O
B6: DOTA-Arg-Gly-Asp-Ser-Pro-Lys(Cypate)-NH2 (peptide)
peptide: {DOTA}-RGDSPK(Cypate)-NH2
SMILES: CC1(C)C(/C=C/C=C/C=C/C=C2/N(CCC(=O)NCCCC[C@H](NC(=O)[C@@H]3CCCN3C(=O)[C@H](CO)NC(=O)[C@H](CC(=O)O)NC(=O)CNC(=O)[C@H](CCCNC(=N)N)NC(=O)CN3CCN(CC(=O)O)CCN(CC(=O)O)CCN(CC(=O)O)CC3)C(N)=O)c3ccc4ccccc4c3C2(C)C)=[N+](CCC(=O)O)c2ccc3ccccc3c21
B7: Cypate(3)-Gly-Arg-Asp-Ser-Pro-Lys-OH (peptide)
peptide: {Cypate(3)}-GRDSPK-OH
B8: Cypate-Val-Arg-Gly-Asp-DPhe-Cyclo(Cys-Tyr-DTrp-Lys-Thr-Cys)-Thr-OH (peptide)
peptide: {Cypate′}-VRGD[dF]CY[dW]KTCT-OH
modifications: disulfide 6-11
B9: Cypate-[Cyclo(Cys-Arg-Gly-Asp-Ser-Cys)-NH2]1-(D-Glucosamine) (peptide)
peptide: CRGDSC-NH2
modifications: disulfide 1-6; not fully specified (N-terminus); printed as Cypate-[Cyclo(Cys-Arg-Gly-Asp-Ser-Cys)-NH2]1-(D-Glucosamine); also: D-glucosamine attached to cypate
B10: DOTA-Gly-Arg-Asp-Ser-Pro-Lys-OH (peptide)
peptide: {DOTA}-GRDSPK-OH
notes: also called DOTA-GRD
B11: H-Val-Arg-Gly-Asp-DPhe-Cyclo(Cys-Tyr-DTrp-Lys-Thr-Cys)-Thr-NH2 (peptide)
peptide: VRGDXCYXKTCT
HELM: PEPTIDE1{V.R.G.D.[dF].C.Y.[dW].K.T.C.T.[am]}$PEPTIDE1,PEPTIDE1,6:R3-11:R3$$$V2.0
SMILES: CC(C)[C@H](N)C(=O)N[C@@H](CCCNC(=N)N)C(=O)NCC(=O)N[C@@H](CC(=O)O)C(=O)N[C@H](Cc1ccccc1)C(=O)N[C@H]1CSSC[C@@H](C(=O)N[C@H](C(N)=O)[C@@H](C)O)NC(=O)[C@H]([C@@H](C)O)NC(=O)[C@H](CCCCN)NC(=O)[C@@H](Cc2c[nH]c3ccccc23)NC(=O)[C@H](Cc2ccc(O)cc2)NC1=O
B12: Cypate-BAla-Cyclo(Cys-Arg-Gly-Asp-Cys)-DPhe-Val-NH2 (peptide)
peptide: {Cypate′}-[βAla]CRGDC[dF]V-NH2
modifications: disulfide 2-6
B13: H-Arg-Gly-Asp-Ser-Pro-Lys(Cypate)-NH2 (peptide)
peptide: H-RGDSPK(Cypate)-NH2
B14: DTPA-DPhe-Cyclo(Cys-Tyr-DTrp-Lys-Thr-Cys)-Thr-Val-Arg-Gly-Asp-DPhe-NH2 (peptide)
peptide: XCYXKTCTVRGDX
HELM: PEPTIDE1{[O=C(O)CN(CCN(CC(=O)O)CC(=O)O)CCN(CC(=O)O)CC(=O)[*:2]].[dF].C.Y.[dW].K.T.C.T.V.R.G.D.[dF].[am]}$PEPTIDE1,PEPTIDE1,3:R3-8:R3$$$V2.0
SMILES: CC(C)[C@H](NC(=O)[C@@H](NC(=O)[C@@H]1CSSC[C@H](NC(=O)[C@@H](Cc2ccccc2)NC(=O)CN(CCN(CCN(CC(=O)O)CC(=O)O)CC(=O)O)CC(=O)O)C(=O)N[C@@H](Cc2ccc(O)cc2)C(=O)N[C@H](Cc2c[nH]c3ccccc23)C(=O)N[C@@H](CCCCN)C(=O)N[C@@H]([C@@H](C)O)C(=O)N1)[C@@H](C)O)C(=O)N[C@@H](CCCNC(=N)N)C(=O)NCC(=O)N[C@@H](CC(=O)O)C(=O)N[C@H](Cc1ccccc1)C(N)=O
B15: DOTA-Arg-Gly-Asp-Ser-Pro-Lys-OH (peptide)
peptide: {DOTA}-RGDSPK-OH
B16: Cypate(Arg-Gly-Asp-Ser-NH2)1-(D-Glucosamine) (peptide)
peptide: Cypate-RGDS-NH2
modifications: also: cypate also carries one D-glucosamine
B17: DTPA-Gly-Arg-Asp-Ser-Pro-Lys-OH (peptide)
peptide: {DTPA}-GRDSPK-OH
B18: H-DPhe-Cyclo(Cys-Tyr-DTrp-Lys-Thr-Cys)-Thr-Val-Arg-Gly-Asp-DPhe-NH2 (peptide)
peptide: XCYXKTCTVRGDX
HELM: PEPTIDE1{[dF].C.Y.[dW].K.T.C.T.V.R.G.D.[dF].[am]}$PEPTIDE1,PEPTIDE1,2:R3-7:R3$$$V2.0
SMILES: CC(C)[C@H](NC(=O)[C@@H](NC(=O)[C@@H]1CSSC[C@H](NC(=O)[C@H](N)Cc2ccccc2)C(=O)N[C@@H](Cc2ccc(O)cc2)C(=O)N[C@H](Cc2c[nH]c3ccccc23)C(=O)N[C@@H](CCCCN)C(=O)N[C@@H]([C@@H](C)O)C(=O)N1)[C@@H](C)O)C(=O)N[C@@H](CCCNC(=N)N)C(=O)NCC(=O)N[C@@H](CC(=O)O)C(=O)N[C@H](Cc1ccccc1)C(N)=O
B19: DTPA-Gly-Arg-Gly-Asp-Ser-Pro-Lys-OH (peptide)
peptide: {DTPA}-GRGDSPK-OH

These binders were tested against T1, purified human αvβ3 integrin protein (human, UniProt P06756 31-1048; P05106 27-788) (assay: competition with 125I-echistatin on purified human αvβ3 integrin, filter plate).
T1 construct: Bought heterodimer; also called ABI; purified αvβ3 integrin
T1 sequence (P06756 31-1048, form in doubt, chain 1 of 2): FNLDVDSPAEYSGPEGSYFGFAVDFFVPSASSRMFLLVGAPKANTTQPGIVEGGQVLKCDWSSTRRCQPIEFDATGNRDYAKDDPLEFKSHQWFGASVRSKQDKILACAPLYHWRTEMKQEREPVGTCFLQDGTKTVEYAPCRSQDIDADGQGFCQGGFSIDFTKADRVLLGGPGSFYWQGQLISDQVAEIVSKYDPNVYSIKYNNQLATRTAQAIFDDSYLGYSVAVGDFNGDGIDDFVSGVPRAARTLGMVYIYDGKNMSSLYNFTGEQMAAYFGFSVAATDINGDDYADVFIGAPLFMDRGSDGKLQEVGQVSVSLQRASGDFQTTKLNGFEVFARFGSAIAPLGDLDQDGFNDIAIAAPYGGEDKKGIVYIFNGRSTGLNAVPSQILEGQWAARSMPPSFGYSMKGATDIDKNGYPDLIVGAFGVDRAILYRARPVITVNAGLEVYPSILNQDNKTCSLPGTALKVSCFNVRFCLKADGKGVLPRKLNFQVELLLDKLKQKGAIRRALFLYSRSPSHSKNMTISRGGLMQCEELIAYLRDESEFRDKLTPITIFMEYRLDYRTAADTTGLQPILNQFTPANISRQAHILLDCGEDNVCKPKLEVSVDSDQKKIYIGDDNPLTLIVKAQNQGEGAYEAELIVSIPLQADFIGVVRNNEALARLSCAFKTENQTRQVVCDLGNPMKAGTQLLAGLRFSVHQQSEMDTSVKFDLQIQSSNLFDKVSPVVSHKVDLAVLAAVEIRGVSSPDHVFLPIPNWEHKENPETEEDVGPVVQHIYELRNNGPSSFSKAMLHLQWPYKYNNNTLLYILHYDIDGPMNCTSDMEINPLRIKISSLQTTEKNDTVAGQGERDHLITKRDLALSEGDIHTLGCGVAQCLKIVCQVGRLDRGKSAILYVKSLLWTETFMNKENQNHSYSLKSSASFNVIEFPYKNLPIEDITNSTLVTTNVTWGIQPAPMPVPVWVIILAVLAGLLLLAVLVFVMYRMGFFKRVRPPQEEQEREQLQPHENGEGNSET
T1 sequence (P05106 27-788, form in doubt, chain 2 of 2): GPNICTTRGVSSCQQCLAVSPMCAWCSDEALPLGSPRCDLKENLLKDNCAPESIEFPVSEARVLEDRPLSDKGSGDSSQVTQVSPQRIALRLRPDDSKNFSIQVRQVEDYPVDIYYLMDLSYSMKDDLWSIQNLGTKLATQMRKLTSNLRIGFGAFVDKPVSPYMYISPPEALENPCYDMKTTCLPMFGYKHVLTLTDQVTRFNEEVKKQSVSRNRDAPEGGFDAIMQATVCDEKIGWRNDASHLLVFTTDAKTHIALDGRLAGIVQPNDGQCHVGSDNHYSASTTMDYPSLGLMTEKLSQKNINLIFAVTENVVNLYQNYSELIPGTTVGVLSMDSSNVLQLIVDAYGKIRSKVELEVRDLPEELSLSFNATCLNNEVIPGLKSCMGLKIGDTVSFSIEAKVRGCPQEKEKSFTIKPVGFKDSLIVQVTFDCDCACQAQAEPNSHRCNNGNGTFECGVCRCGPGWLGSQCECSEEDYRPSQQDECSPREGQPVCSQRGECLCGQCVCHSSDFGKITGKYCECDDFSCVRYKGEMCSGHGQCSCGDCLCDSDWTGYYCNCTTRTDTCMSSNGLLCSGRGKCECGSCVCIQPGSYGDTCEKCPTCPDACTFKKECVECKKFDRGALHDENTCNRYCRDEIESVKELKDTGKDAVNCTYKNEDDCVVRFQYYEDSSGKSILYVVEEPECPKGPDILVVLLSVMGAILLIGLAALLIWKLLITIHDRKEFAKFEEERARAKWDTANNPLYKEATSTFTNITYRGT
Protocol: (§1) The binding affinities were measured based on the competitive binding between purified αᵥβ₃ integrin (ABI) and peptide ligands.
(§2) Receptor binding assays were performed by using purified human αᵥβ₃ integrin protein from Chemicon International, Inc. (Temecula, Calif.). Assays were carried out using the Millipore Duropore membrane 96-well plates and the Millipore MultiScreen system (Bedford, Mass.). […] The concentration range of ligand was between 0.01 μM and 100 μM. The mixtures were incubated for 2 h at room temperature, the ABI was then filtered by centrifugation at 1500 g and washed three times with 0.20 mL of ice-cold binding buffer. The filters containing radioactivity bound ABI were removed using a punch apparatus and counted using a Packard Cobra II Auto-gamma counter (Meriden, Conn.). […] The 50% inhibitory concentrations (IC₅₀) were calculated by nonlinear regression analysis by use of the GraphPad Prism 4 computer fitting program (GraphPad Software, Inc., San Diego, Calif.).

Row | Binder | IC50
1 | B1 | 4.6 µM
2 | B2 | 1.14 µM
3 | B3 | 1.89 µM

Target: T1, purified human αvβ3 integrin protein
Assay: as above
Remark: another data set of the same source
Protocol: as §1, §2

Row | Binder | IC50
4 | B4 | 266 µM
5 | B5 | 0.722 µM
6 | B6 | 0.722 µM
7 | B7 | 2670 µM
8 | B8 | 325 µM
9 | B9 | 0.275 µM
10 | B10 | 350 µM
11 | B11 | 1.68 µM
12 | B12 | 0.000977 µM
13 | B13 | 1 µM
14 | B14 | 0.945 µM
15 | B15 | 0.694 µM
16 | B16 | 1.94 µM
17 | B17 | 0.849 µM
18 | B18 | 0.357 µM
19 | B19 | 0.353 µM
